The source of these data is US5677280A, “Peptides and compounds that bind to the IL-5 receptor” (Glaxo Group Limited, priority 1995, dated 1997).

One assay addresses T1, human IL-5 receptor (Homo sapiens, UniProt Q01344).
T1 construct: host or cells: subclone of HL60 induced towards eosinophil differentiation with sodium butyrate (endogenous receptor)
T1 sequence (Q01344 21-420): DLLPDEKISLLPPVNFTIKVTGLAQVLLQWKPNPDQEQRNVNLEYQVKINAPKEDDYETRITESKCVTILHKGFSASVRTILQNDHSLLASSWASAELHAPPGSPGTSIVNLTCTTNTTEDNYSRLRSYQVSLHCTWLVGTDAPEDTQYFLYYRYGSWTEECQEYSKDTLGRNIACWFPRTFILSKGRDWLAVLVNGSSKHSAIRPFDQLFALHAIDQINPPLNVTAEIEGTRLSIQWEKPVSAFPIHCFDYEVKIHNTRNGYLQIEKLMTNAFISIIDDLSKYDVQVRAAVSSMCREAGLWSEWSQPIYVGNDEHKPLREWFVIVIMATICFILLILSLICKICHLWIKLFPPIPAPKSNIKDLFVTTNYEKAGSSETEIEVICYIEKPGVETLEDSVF
T1 sequence (P32927 17-897 partner): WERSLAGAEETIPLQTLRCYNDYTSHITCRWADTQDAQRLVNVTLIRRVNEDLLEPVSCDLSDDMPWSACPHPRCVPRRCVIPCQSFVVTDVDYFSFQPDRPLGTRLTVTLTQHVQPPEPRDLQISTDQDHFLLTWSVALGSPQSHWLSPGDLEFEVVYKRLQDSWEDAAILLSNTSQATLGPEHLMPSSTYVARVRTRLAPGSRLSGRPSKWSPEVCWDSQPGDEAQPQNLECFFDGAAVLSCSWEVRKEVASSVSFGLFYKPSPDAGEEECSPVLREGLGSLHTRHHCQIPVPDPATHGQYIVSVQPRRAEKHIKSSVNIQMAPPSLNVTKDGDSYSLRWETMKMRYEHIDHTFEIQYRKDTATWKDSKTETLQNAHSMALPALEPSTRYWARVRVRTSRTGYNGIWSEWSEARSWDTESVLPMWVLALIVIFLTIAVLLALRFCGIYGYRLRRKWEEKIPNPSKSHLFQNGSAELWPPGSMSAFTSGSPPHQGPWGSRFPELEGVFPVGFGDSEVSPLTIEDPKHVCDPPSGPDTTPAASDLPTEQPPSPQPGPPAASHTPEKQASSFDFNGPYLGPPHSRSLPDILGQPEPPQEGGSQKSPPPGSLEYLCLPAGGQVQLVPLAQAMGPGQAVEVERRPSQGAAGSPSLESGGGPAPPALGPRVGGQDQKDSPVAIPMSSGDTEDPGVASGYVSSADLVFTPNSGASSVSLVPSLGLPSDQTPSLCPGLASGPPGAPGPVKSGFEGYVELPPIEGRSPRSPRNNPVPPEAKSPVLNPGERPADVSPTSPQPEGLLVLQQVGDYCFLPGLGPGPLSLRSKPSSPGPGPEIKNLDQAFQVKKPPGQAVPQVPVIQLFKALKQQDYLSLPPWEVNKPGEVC
To be noted: HL60 subclone, eosinophilic differentiation initiated with sodium butyrate; read-out: Kd of IL-5 binding sites; cited from earlier work.

In assay [1] the target is extracellular domain (ECD) of the IL-5 receptor α chain, soluble (human) (UniProt Q01344). Nature of the assay: competition with [125I] IL-5 on immobilised soluble IL-5Rα; grade ++ = IC50 of 500 nm or less.

One may read the Kd as the free concentration of one partner at which half of the binding sites on the other are occupied at equilibrium, for simple one-to-one binding. Turning to “IL-5: lymphokine secreted by T cells and mast cells having biological activities on B cells and eosinophils”, in the assay with human IL-5 receptor, the Kd is 0.03 nM.

As usually defined, the IC50 is the midpoint of a concentration-inhibition curve. Higher therefore signals weaker potency in that assay. As for DGYVCVEWARCPTCK [peptide … (SEQ ID NO:7)], the concentration for half-maximal inhibition (IC50) in assay [1] is under 500 nM.

On to DGFVCVEWARCPNCR [peptide … (SEQ ID NO:9)], for which the 50% inhibitory concentration (IC50) in assay [1] is under 500 nM.

In assay [1], DGYVCVEWARCPMCT [peptide … (SEQ ID NO:8)] yielded an IC50 of under 500 nM.
